Experimental findings from paper PMC10988774 (Journal of molecular biology, 2023) are described below.

This experiment addresses T1, p65 La module, LaMod(108–355) (Tetrahymena thermophila, UniProt W7X6T2 108-355).
T1 sequence (looked up): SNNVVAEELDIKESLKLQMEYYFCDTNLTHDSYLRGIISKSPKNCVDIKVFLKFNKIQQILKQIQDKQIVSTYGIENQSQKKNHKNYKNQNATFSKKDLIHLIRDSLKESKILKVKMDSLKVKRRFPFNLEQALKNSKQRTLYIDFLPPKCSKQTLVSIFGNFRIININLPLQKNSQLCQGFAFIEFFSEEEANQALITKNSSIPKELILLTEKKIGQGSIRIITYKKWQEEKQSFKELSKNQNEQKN
Briefly: NMR titration.

B1: p65 N-terminal domain, NTD (residues 1–109) (domain or fragment, Tetrahymena thermophila, UniProt W7X6T2 1-109, looked up)
chain: MDEYLENTNLEELEQECFMEDYQHEDVVEQENHQVDANDIYENQQMNDESQLNQDVKISQQKEQAVEMIEEQQQNNQDKFKQFQDCMAHITELNFKRNYQNLTEQSSSN
On to B1, for which the binding result is “binds”.
